Measured values as given in patent publication US20260232759A1 (WISCONSIN ALUMNI RESEARCH FOUNDATION, published 2026).
No end group written: not given here. PEG‑cholesterol = not defined here

B1: D1 Q4 D32 E35 (peptide)
peptide: DISQINASVVNIEYEIKKLEEVAKKLEESLIDLQELGSGSGC(PEG‑cholesterol)
modifications: not fully specified (C-terminus); reading uncertain; also: β2- or β3-amino acids, presumably D1, Q4, D32, E35
B2: D1 Q4 D32 Q34 (peptide)
peptide: DISQINASVVNIEYEIKKLEEVAKKLEESLIDLQELGSGSGC(PEG‑cholesterol)
modifications: not fully specified (C-terminus); reading uncertain; also: β2- or β3-amino acids, presumably D1, Q4, D32, Q34

Molecular target: SARS-CoV-2 Spike protein (SARS-CoV-2, UniProt P0DTC2 14-1273)
Assay: cell-based or functional assay

Binder | inhibition of S-mediated cell-cell fusion (β-Gal complementation), IC50 [nM]
B1 | ~50
B2 | ~10
